Data as given in the supplement of paper PMC9170038.

How the values were obtained:
MS2 coat protein [1] = assay: apparent KD of MS2 coat protein, switch OFF state (with FMN for OFF switches, without FMN for ON switches); designed switch direction (-1 OFF switch, 1 ON switch): 1; higher = weaker reporter binding; conditions: FMN input: 0 or 200 uM; Eterna round: R93 (includes R88 designs)
How it was run: (§1)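 Illumina sequencing clusters served as templates for on-chip transcription of the designed RNA switches. SNAP-549-labelled MS2 coat protein was then titrated in twofold steps from 0.7 or 1.5 nM to 3 µM, allowing 0.8–1.5 h per step at first and 10–20 min per step later. The buffer held 100 mM Tris-HCl pH 7.5, 80 mM KCl and 4 mM MgCl2, without or with constant ligand. Apparent KD is the median per design of normalised cluster binding-curve fits.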

MS2 coat protein [2] = assay: apparent KD of MS2 coat protein, switch ON state; designed switch direction (-1 OFF switch, 1 ON switch): 1; higher = weaker reporter binding; conditions: FMN input: 0 or 200 uM; Eterna round: R93 (includes R88 designs)
How it was run: as §1

| Sequence | apparent KD of MS2 coat protein (MS2 coat protein [1]) [nM] | apparent KD of MS2 coat protein (MS2 coat protein [2]) [nM] |
| --- | --- | --- |
| ACAAAACAUGAGGAUCACCCAUGUAUAAAUAUAACAGGAUAUGGGACUGCCGAUUAGGCACCAGAAGGGUUUUCAC [Atearve] | 27.3 | 20.8 |
| AGAAAUAAAAGAGAGGAUAUCCAAAAGAAAACAUGAGGAUCACCCAUGUAAAAGAAAAUAAAAUGGGAGAAGGCUCAAAAUAAAGA [Helter Skelter 2] | 69.7 | 21.6 |
| GAAAAACAUGAGGAUCACCCAUGUGAGAAUAUGGGAGGAUAUUCAAAGACGAAAGUCAAAGAAGAAGGCCUAAAAG [Mat - Same State 1 - Eli mod - 37] | 276 | 31.2 |
| ACAAAACAUGAGGAUCACCCAUGUCGACUAAAUCAAGGAUAUGGGAAUGCGAAAGCAAAGCCAGAAGGUGAGGUCC [Xeorarbiar] | 185 | 294 |
| AAAAGACAUGAGGAUCACCCAUGUAAAAACAUAGGAGGAUAUGUCGUGAAAAAAGACUUGGCAGAAGGCCUAUGUC [SS1 - 44] | 30.7 | 19.7 |
| AACAAUCUAUCUGAGGAUAUCAUGUCAAAGACAUGAGGAUCACCCAUGUACCAGGAAACUGGAUAUGAGAAGGCAGAUAGAUUGA [SS2: 1119] | 204 | 16.1 |
| AAGAAACAUGAGGAUCACCCAUGUAAUAAUAUGGGAGGAUAUACAAGGACAAUAGUCAAGGUAGAAGGCCUAAGAA [Mat - Same State 1 - Meechl mod - D142] | 249 | 26.7 |
| GAGAAACAUGAGGAUCACCCAUGUAGAAAUAUGGGAGGAUAUACAAAGACGAAAGUCAAAGUAGAAGGCCUAGAAG [77%, Mat - Mod of Eli - With 2 more G's] | 51.6 | 21.9 |
| UACACGCUGGCGCAGGAUAUGUCGCUGGUGACAUGAGGAUCACCCAUGUAUACCAUUGCGGUUAAGCAGAAGGGUGAGAAGCGUG [Bidibeso] | 89.8 | 23.5 |
| AGAAAUAAAUGAGAGGAUAUCCUAAAGAAAACAUGAGGAUCACCCAUGUAAAAGAAAAUAAAAUGGGAGAAGGCUCAUAAUAAAG [Starry Same State 2 (jandersonlee round 1 mod)] | 35.5 | 20.8 |
| AAAAAUAAAACACAGGAUAUCCAAAAGAAAACAUGAGGAUCACCCAUGUAAAGAAAAUAAAAAUGGGAGAAGGGUGAAAAUAAGA [Mat - Same State 2 - JL mod - D21] | 52.6 | 29.9 |
| GAGAAGAAGAGAGAGGAUAUCCAAAGGAAAACAUGAGGAUCACCCAUGUAAAAGGUAGGAAAUUGGGAGAAGGCUCAAAGGAGGG [salish99-ss2-031] | 29.5 | 23.2 |
| AAAUAACAUGCGCAGGAUAUGAGACCGAUAACAUGAGGAUCACCCAUGUUAAGGAAGAAAUAAAAUCAGAAGGGUGGGUGGACCU [Aatteri] | 26.6 | 25.7 |
| AAAUAAAUGACUAAGGAUAUAUUAGAGAAAACAUGAGGAUCACCCAUGUAAUAAUAAAAAGGGUGAUAGAAGGUAGUCAACAAAC [74%, More Paria 4] | 48.8 | 132 |
| AAAAGACAUGAGGAUCACCCAUGUUAAGACGUAGGAGGAUAUGUCGUGAAAAAAGACUUGACAGAAGGCCUGUGUC [SS1 - 38] | 20.4 | 16 |
| AGGAAACAUGAGGAUCACCCAUGUAAAAAUAUAGGAGGAUAUGCGAAAAGAAACAAAGAAGCAGAAGGCUUAAAAA [75%, Ex sub1, 22] | 20.8 | 13.1 |
| ACAUGCUGCCGGCAGGAUAUCGCUUGGCGGACAUGAGGAUCACCCAUGUGAGAAAGUCGCGCGCGCGAGAAGGGCCAUGGUAUCAG [SameState2_Neo] | 61.1 | 89.3 |
| AAUAAUUAUACGAAGGAUAUCGGUAAUUAGACAUGAGGAUCACCCAUGUAAUAUGGUUAAAUAUUCGAGAAGGUCGAGGGUGAAA [JR_SS002_Sub504] | 29.4 | 336 |
| AUAAAUAAAAUCAAGGAUAUCCAAAAAAAAACAUGAGGAUCACCCAUGUAAAAGAAAAUAAAAUGGGAGAAGGUGAAAAAUAAAU [SS2 M 6] | 68 | 39.4 |
| AAAACACAUGAGGAUCACCCAUGUGCAAAAUUCGCAGGAUAUUUCUCGAUUAAAUGAUAGGAAGAAGGGUGAUAAA [Nob's Hobby 35 - Jieux - Same State 1] | 33.7 | 25.8 |
| UGUUCGAGUAGUGAGGAUAUUCAUGGGCCCACAUGAGGAUCACCCAUGUAAAGGACCGGGCCGAAGGAGAAGGCGCGUAAAAUUA [Esenan] | 73.3 | 28.9 |
| AAAAUACAUGAGGAUCACCCAUGUCCGACAAAUCAAGGAUAUGAUAGCCAAACCAAGCUGUUAGAAGGUGAAAGAA [Edengere] | 208 | 499 |

| Sequence | apparent KD of MS2 coat protein (MS2 coat protein [1]) [nM] | apparent KD of MS2 coat protein (MS2 coat protein [2]) [nM] |
| --- | --- | --- |
| AUAUAUAUAAGGAAGGAUAUCCAAAAAUAAACAUGAGGAUCACCCAUGUCCAUAAAGAAUAAAUGGGAGAAGGUCCAUAUAUAUA [77%, More Tesla, 9] | 123 | 24.2 |
| AACAUACAUGAGGAUCACCCAUGUUCCGGCAGGUCAGGAUAUUUAUCGAAUGAGUUCUAGAAAGAAGGGACAUAAA [JR_SS001_Sub008] | 62.7 | 45.8 |
| AAAUAACAUGAGGAUCACCCAUGUUACAACAAUACAGGAUAUGUGGGUGAAAAUAGCAUGACAGAAGGGUAAUGUA [SameState1 Malc#32] | 79.8 | 239 |
| AGCACGUGAUUGGAGGAUAUGCAGUAAGCAACAUGAGGAUCACCCAUGUCUGACCCUGAAAACCAGCAGAAGGCCGAUACAACCA [SS2-1.7] | 13 | 10.2 |
| GAAGACAUAGUACAGGAUAUAUGAAUAGUCACAUGAGGAUCACCCAUGUCCAUUUAUAUGGGCACAUAGAAGGGUGGUAGUUGUC [Mat - Same state - Malcolm Mod - D125] | 35.3 | 8.69 |
| AAAAAACAUGAGGAUCACCCAUGUAGAAACAUGGGAGGAUAUACGAAGACGAAAGUCAAAGUAGAAGGCCUAAGAA [Garnet 88] | 224 | 182 |
| AAAAGACAUGAGGAUCACCCAUGUUAAGACGUAGGAGGAUAUGUAUGGAAAACAUGCUGUACAGAAGGCCUGUGUC [SS1 - 26] | 20.8 | 17.8 |
| GGGAGACAUGAGGAUCACCCAUGUGAAAACGUGCGAGGAUAUGAAUGGAAACCAUACUGUUCAGAAGGCGUUUGUC [Titus Petronius Secundus] | 69.2 | 46.5 |
| AUAAAUAAAAGAGAGGAUAUCCAAAAUAAAACAUGAGGAUCACCCAUGUAAAAUAAAAUAAAAUGGGAGAAGGCUCAAAAUAAAU [SS2 M 2] | 72.1 | 21.6 |
| AACAAUCUAUCUGAGGAUAUAUGUCGAAAGACAUGAGGAUCACCCAUGUAAAAACAUGAAAAGACAUAGAAGGCAGAUAGAUUGA [SS2: 1132] | 36.1 | 18.6 |
| AAGAAACAUGAGGAUCACCCAUGUGAGAUAAACACAGGAUAUGCGAAAAGAAAUAAAUAAGCAGAAGGGUGAAGAA [Mat - Same State 1 - Tesla mod - 70] | 62.6 | 26.4 |
| AGCACGUGAUUGGAGGAUAUGUUGUAAGCAACAUGAGGAUCACCCAUGUCUGAGGCUGAAAAGCAGCAGAAGGCCGAUACAACCA [SS2-1.3] | 110 | 37.2 |
| AACAAUCUAUCUGAGGAUAUCAUGUGAAAGACAUGAGGAUCACCCAUGUCGCAGGAAACUGCUCAUGAGAAGGCAGAUAGAUUGA [SS2: 1127] | 12.5 | 15.6 |
| AAAAGACAUGAGGAUCACCCAUGUAAAAACUUGGGAGGAUAUGCUUGGAAAACAUGCUAUGCAGAAGGCUCUAGUC [SS1 - 14] | 123 | 78.3 |
| AAAACACAUGAGGAUCACCCAUGUAUCUGGACCAUAGGAUAUCCGCACCCACUAAGGCGUGGAGAAGGGUGAGCCC [Antisoorti] | 124 | 160 |
| CGAAGACAUGAGGAUCACCCAUGUCGUCGUAACAGAGGAUAUGGGAACGCCAAGGGCGCAUCAGAAGGCUGAAAAC [Gediaton] | 31 | 16.2 |
| CGGAGACAUGAGGAUCACCCAUGUGAGAAGAGGCGAGGAUAUCGAAAGAAAGAAGAGAAACGAGAAGGCGCGAGAU [salish99-SS1-069] | 29.8 | 20.4 |
| AAUCCAACUAGUCAGGAUAUCAGGCGUAAGACAUGAGGAUCACCCAUGUCCUUAGUACAAGUAACUGAGAAGGGACAGGGCGACC [JR_SS002_Sub410] | 39.5 | 74.9 |
| CAGAGACAUGAGGAUCACCCAUGUAGGAUUAUGGGAGGAUAUACAAAGACGAGAGUCAGAGUAGAAGGCCUAGGCC [salish99-ss1-145] | 43.2 | 29.7 |
| AACUACAUUAUGAAGGAUAUCCACAUCAAGACAUGAGGAUCACCCAUGUAUACUUAGAUCAUACAGGAGAAGGUCAAGGGUGAAU [JR_SS002_Sub1207] | 89.2 | 244 |
| AAAGAAAAACUAGAGGAUAUCCGAGUGGUAACAUGAGGAUCACCCAUGUGAUGAAAGGAACAUGAGGAGAAGGCUAGAAGAAAAA [JL Nando mod 8] | 257 | 14.4 |
